As a reminder, the Kd is the free concentration of one partner at which half of the binding sites on the other are occupied at equilibrium, for simple one-to-one binding.

This note sets out measurements from PMC10786891, “Massively parallel profiling of RNA-targeting CRISPR-Cas13d”.

The chains are these.
T1: EsCas13d, nuclease-dead (Eubacterium siraeum, UniProt B0MS50, R295A;H300A;R849A;H854A)
T1 sequence: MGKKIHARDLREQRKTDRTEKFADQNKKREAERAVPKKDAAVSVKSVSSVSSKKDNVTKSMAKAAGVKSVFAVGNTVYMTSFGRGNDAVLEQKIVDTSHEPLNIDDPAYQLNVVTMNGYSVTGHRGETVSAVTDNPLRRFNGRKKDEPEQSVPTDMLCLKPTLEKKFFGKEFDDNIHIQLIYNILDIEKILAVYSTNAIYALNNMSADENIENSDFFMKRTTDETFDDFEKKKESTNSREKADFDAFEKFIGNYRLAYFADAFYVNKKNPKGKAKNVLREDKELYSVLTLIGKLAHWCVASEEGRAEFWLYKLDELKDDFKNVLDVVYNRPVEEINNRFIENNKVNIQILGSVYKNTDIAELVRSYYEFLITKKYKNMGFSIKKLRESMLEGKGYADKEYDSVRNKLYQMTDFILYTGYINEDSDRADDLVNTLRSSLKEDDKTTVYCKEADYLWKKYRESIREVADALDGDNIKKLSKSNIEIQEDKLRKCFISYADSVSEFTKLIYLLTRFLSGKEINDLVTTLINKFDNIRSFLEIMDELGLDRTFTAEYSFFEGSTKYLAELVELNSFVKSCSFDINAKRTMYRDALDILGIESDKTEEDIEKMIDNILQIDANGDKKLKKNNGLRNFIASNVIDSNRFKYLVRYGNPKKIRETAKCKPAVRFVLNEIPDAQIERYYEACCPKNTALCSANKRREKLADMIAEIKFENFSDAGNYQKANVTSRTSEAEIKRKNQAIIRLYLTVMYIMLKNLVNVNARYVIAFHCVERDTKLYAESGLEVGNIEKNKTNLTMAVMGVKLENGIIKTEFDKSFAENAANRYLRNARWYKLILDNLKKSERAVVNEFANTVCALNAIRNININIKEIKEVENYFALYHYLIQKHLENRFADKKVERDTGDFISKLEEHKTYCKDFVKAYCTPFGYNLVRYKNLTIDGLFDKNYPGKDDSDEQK

B1: target 2 MT 5'PFS AAC 3'PFS CCA (mixed)
RNA 1: CACCCGUGCAAAAUUGCAGGGGUCUAAAACCUUCUCCAAAUUGUUUCAUCCU
RNA 2: GGGAAUGGAUCCACAUCUACGAAUUCAACAGGAUGAAACAAUUUGGAGAAGCCAAGAUCGGAAGAGCACACGU
B2: target 2 MT 5'PFS UAA 3'PFS CUU (mixed)
RNA 1: CACCCGUGCAAAAUUGCAGGGGUCUAAAACCUUCUCCAAAUUGUUUCAUCCU
RNA 2: GGGAAUGGAUCCACAUCUACGAAUUCUAAAGGAUGAAACAAUUUGGAGAAGCUUAGAUCGGAAGAGCACACGU
B3: target 2 MT 5'PFS UAA 3'PFS CUC (mixed)
RNA 1: CACCCGUGCAAAAUUGCAGGGGUCUAAAACCUUCUCCAAAUUGUUUCAUCCU
RNA 2: GGGAAUGGAUCCACAUCUACGAAUUCUAAAGGAUGAAACAAUUUGGAGAAGCUCAGAUCGGAAGAGCACACGU
B4: target 2 MT 5'PFS AUA 3'PFS UCU (mixed)
RNA 1: CACCCGUGCAAAAUUGCAGGGGUCUAAAACCUUCUCCAAAUUGUUUCAUCCU
RNA 2: GGGAAUGGAUCCACAUCUACGAAUUCAUAAGGAUGAAACAAUUUGGAGAAGUCUAGAUCGGAAGAGCACACGU
B5: target 2 MT 5'PFS AGG 3'PFS CUA (mixed)
RNA 1: CACCCGUGCAAAAUUGCAGGGGUCUAAAACCUUCUCCAAAUUGUUUCAUCCU
RNA 2: GGGAAUGGAUCCACAUCUACGAAUUCAGGAGGAUGAAACAAUUUGGAGAAGCUAAGAUCGGAAGAGCACACGU
B6: target 2 MT 5'PFS AAC 3'PFS CCG (mixed)
RNA 1: CACCCGUGCAAAAUUGCAGGGGUCUAAAACCUUCUCCAAAUUGUUUCAUCCU
RNA 2: GGGAAUGGAUCCACAUCUACGAAUUCAACAGGAUGAAACAAUUUGGAGAAGCCGAGAUCGGAAGAGCACACGU
B7: target 2 MT 5'PFS UAU 3'PFS CAU (mixed)
RNA 1: CACCCGUGCAAAAUUGCAGGGGUCUAAAACCUUCUCCAAAUUGUUUCAUCCU
RNA 2: GGGAAUGGAUCCACAUCUACGAAUUCUAUAGGAUGAAACAAUUUGGAGAAGCAUAGAUCGGAAGAGCACACGU
B8: target 2 MT 5'PFS UAA 3'PFS CUA (mixed)
RNA 1: CACCCGUGCAAAAUUGCAGGGGUCUAAAACCUUCUCCAAAUUGUUUCAUCCU
RNA 2: GGGAAUGGAUCCACAUCUACGAAUUCUAAAGGAUGAAACAAUUUGGAGAAGCUAAGAUCGGAAGAGCACACGU
B9: target 2 MT 5'PFS GCU 3'PFS ACA (mixed)
RNA 1: CACCCGUGCAAAAUUGCAGGGGUCUAAAACCUUCUCCAAAUUGUUUCAUCCU
RNA 2: GGGAAUGGAUCCACAUCUACGAAUUCGCUAGGAUGAAACAAUUUGGAGAAGACAAGAUCGGAAGAGCACACGU
B10: target 2 MT 5'PFS GCA 3'PFS AGG (mixed)
RNA 1: CACCCGUGCAAAAUUGCAGGGGUCUAAAACCUUCUCCAAAUUGUUUCAUCCU
RNA 2: GGGAAUGGAUCCACAUCUACGAAUUCGCAAGGAUGAAACAAUUUGGAGAAGAGGAGAUCGGAAGAGCACACGU
B11: target 2 MT 5'PFS GCU 3'PFS ACU (mixed)
RNA 1: CACCCGUGCAAAAUUGCAGGGGUCUAAAACCUUCUCCAAAUUGUUUCAUCCU
RNA 2: GGGAAUGGAUCCACAUCUACGAAUUCGCUAGGAUGAAACAAUUUGGAGAAGACUAGAUCGGAAGAGCACACGU
B12: target 2 MT 5'PFS CAU 3'PFS ACG (mixed)
RNA 1: CACCCGUGCAAAAUUGCAGGGGUCUAAAACCUUCUCCAAAUUGUUUCAUCCU
RNA 2: GGGAAUGGAUCCACAUCUACGAAUUCCAUAGGAUGAAACAAUUUGGAGAAGACGAGAUCGGAAGAGCACACGU
B13: target 2 MT 5'PFS GCU 3'PFS ACG (mixed)
RNA 1: CACCCGUGCAAAAUUGCAGGGGUCUAAAACCUUCUCCAAAUUGUUUCAUCCU
RNA 2: GGGAAUGGAUCCACAUCUACGAAUUCGCUAGGAUGAAACAAUUUGGAGAAGACGAGAUCGGAAGAGCACACGU
B14: target 2 MT 5'PFS GCU 3'PFS ACC (mixed)
RNA 1: CACCCGUGCAAAAUUGCAGGGGUCUAAAACCUUCUCCAAAUUGUUUCAUCCU
RNA 2: GGGAAUGGAUCCACAUCUACGAAUUCGCUAGGAUGAAACAAUUUGGAGAAGACCAGAUCGGAAGAGCACACGU
B15: target 2 MT 5'PFS AUU 3'PFS AUA (mixed)
RNA 1: CACCCGUGCAAAAUUGCAGGGGUCUAAAACCUUCUCCAAAUUGUUUCAUCCU
RNA 2: GGGAAUGGAUCCACAUCUACGAAUUCAUUAGGAUGAAACAAUUUGGAGAAGAUAAGAUCGGAAGAGCACACGU
B16: target 2 MT 5'PFS GCA 3'PFS AGU (mixed)
RNA 1: CACCCGUGCAAAAUUGCAGGGGUCUAAAACCUUCUCCAAAUUGUUUCAUCCU
RNA 2: GGGAAUGGAUCCACAUCUACGAAUUCGCAAGGAUGAAACAAUUUGGAGAAGAGUAGAUCGGAAGAGCACACGU
B17: target 2 MT 5'PFS AGC 3'PFS UUU (mixed)
RNA 1: CACCCGUGCAAAAUUGCAGGGGUCUAAAACCUUCUCCAAAUUGUUUCAUCCU
RNA 2: GGGAAUGGAUCCACAUCUACGAAUUCAGCAGGAUGAAACAAUUUGGAGAAGUUUAGAUCGGAAGAGCACACGU
B18: target 2 MT 5'PFS UUG 3'PFS UUU (mixed)
RNA 1: CACCCGUGCAAAAUUGCAGGGGUCUAAAACCUUCUCCAAAUUGUUUCAUCCU
RNA 2: GGGAAUGGAUCCACAUCUACGAAUUCUUGAGGAUGAAACAAUUUGGAGAAGUUUAGAUCGGAAGAGCACACGU
B19: target 2 MT 5'PFS AGC 3'PFS UUG (mixed)
RNA 1: CACCCGUGCAAAAUUGCAGGGGUCUAAAACCUUCUCCAAAUUGUUUCAUCCU
RNA 2: GGGAAUGGAUCCACAUCUACGAAUUCAGCAGGAUGAAACAAUUUGGAGAAGUUGAGAUCGGAAGAGCACACGU
B20: target 2 MT 5'PFS UCU 3'PFS AUC (mixed)
RNA 1: CACCCGUGCAAAAUUGCAGGGGUCUAAAACCUUCUCCAAAUUGUUUCAUCCU
RNA 2: GGGAAUGGAUCCACAUCUACGAAUUCUCUAGGAUGAAACAAUUUGGAGAAGAUCAGAUCGGAAGAGCACACGU
B21: target 2 MT 5'PFS UAA 3'PFS CUG (mixed)
RNA 1: CACCCGUGCAAAAUUGCAGGGGUCUAAAACCUUCUCCAAAUUGUUUCAUCCU
RNA 2: GGGAAUGGAUCCACAUCUACGAAUUCUAAAGGAUGAAACAAUUUGGAGAAGCUGAGAUCGGAAGAGCACACGU
B22: target 2 MT 5'PFS AGC 3'PFS UUA (mixed)
RNA 1: CACCCGUGCAAAAUUGCAGGGGUCUAAAACCUUCUCCAAAUUGUUUCAUCCU
RNA 2: GGGAAUGGAUCCACAUCUACGAAUUCAGCAGGAUGAAACAAUUUGGAGAAGUUAAGAUCGGAAGAGCACACGU
B23: target 2 MT 5'PFS UCU 3'PFS AUG (mixed)
RNA 1: CACCCGUGCAAAAUUGCAGGGGUCUAAAACCUUCUCCAAAUUGUUUCAUCCU
RNA 2: GGGAAUGGAUCCACAUCUACGAAUUCUCUAGGAUGAAACAAUUUGGAGAAGAUGAGAUCGGAAGAGCACACGU
B24: target 2 MT 5'PFS AUU 3'PFS AUC (mixed)
RNA 1: CACCCGUGCAAAAUUGCAGGGGUCUAAAACCUUCUCCAAAUUGUUUCAUCCU
RNA 2: GGGAAUGGAUCCACAUCUACGAAUUCAUUAGGAUGAAACAAUUUGGAGAAGAUCAGAUCGGAAGAGCACACGU
B25: target 1 C4U,A20C (mixed)
RNA 1: CACCCGUGCAAAAAUGCAGGGGUCUAAAACUGAGCGGAUAACCUCUCUAUGG
RNA 2: GGGAAUGGAUCCACAUCUACGAAUUCGUACCCUAGAGAGGUUAUCCGUUCACCGAGAUCGGAAGAGCACACGU
B26: target 1 C7U,A18C (mixed)
RNA 1: CACCCGUGCAAAAAUGCAGGGGUCUAAAACUGAGCGGAUAACCUCUCUAUGG
RNA 2: GGGAAUGGAUCCACAUCUACGAAUUCGUACCAUCGAGAGGUUAUUCGCUCACCGAGAUCGGAAGAGCACACGU
B27: target 1 G12U,A20U (mixed)
RNA 1: CACCCGUGCAAAAAUGCAGGGGUCUAAAACUGAGCGGAUAACCUCUCUAUGG
RNA 2: GGGAAUGGAUCCACAUCUACGAAUUCGUACCUUAGAGAGUUUAUCCGCUCACCGAGAUCGGAAGAGCACACGU

In this data set the target is T1, EsCas13d, nuclease-dead. Briefly: crRNA (strand 1, pre-loaded); Mg2+; 40 mM Tris-HCl pH 7.5, 150 mM NaCl, 6 mM MgCl2, 1 mM DTT, 0.1% Tween-20, 0.2 mg/ml BSA; 25 C; 10 min per concentration, then washed. The following applies: tags: His6-TwinStrep-SUMO cleaved; N-terminal SNAP kept (SNAP-Surface 488); label: 3' end held by stalled T7 RNA polymerase.
For B1, the dissociation constant Kd turned out to be 13 ± 4 nM. As for B2, the figure is 6.9 ± 1.5 nM. To B3 belongs 6.7 ± 0.9 nM.

With B4, the affinity, expressed as Kd, was 33 ± 15 nM. In turn, B5 had a Kd of 6.7 ± 1.1 nM. To B6 belongs 5.9 ± 0.6 nM; to B7, 24.1 ± 2.7 nM; to B8, 4.6 ± 0.5 nM. As for B9, the figure is 15 ± 4 nM; as for B10, 13.1 ± 1.8 nM.

Turning to B11, the Kd was found to be 23 ± 4 nM.

B12 yielded a Kd of 7.9 ± 2.5 nM. To B13 belongs 14.6 ± 1.4 nM; to B14, around 30 nM.

As to B15, binding was put at a Kd of 5.3 ± 0.4 nM. For the molecule B16, the affinity, expressed as Kd, was 28 ± 10 nM.

In turn, B17 came in with a Kd of 20 ± 4 nM. As for B18, the figure is 25.5 ± 3.3 nM; as for B19, 10.6 ± 1.4 nM. The molecule B20 showed a Kd of 7.3 ± 1 nM. To B21 belongs 6.2 ± 1.1 nM; to B22, 10.9 ± 2.4 nM. On to B23, for which the Kd came out at 8.3 ± 1.5 nM. To B24 belongs 9.5 ± 1 nM; to B25, around 90 nM; to B26, 55 ± 5 nM. To B27 belongs 27.5 ± 2.3 nM.
